Measured values taken from patent US7604993B2, “Combined regulation of neural cell production” (Stem Cell Therapeutics Inc., priority 2001, dated 2009).
“Also recorded” adds a separate entry of the source.

B1: prolactin: prolactin, first infusion days 1-7, then CSF (Group 3) (protein, UniProt P01236 29-227, looked up)
Prolactin: LPICPGGAARCQVTLRDLFDRAVVLSHYIHNLSSEMFSEFDKRYTHGRGFITKAINSCHTSSLATPEDKEQAQQMNQKDFLSLIVSILRSWNEPLYHLVTEVRGMQEAPEAILSKAVEIEEQTKRLLEGMELIVSQVHPETKENEIYPVWSGLPSLQMADEESRLSAYYNLLHCLRRDSHKIDNYLKLLKCRIIHNNNC
B2: CNTF: rat recombinant CNTF, ciliary neurotrophic factor (protein, UniProt P20294 1-200, looked up)
Ciliary neurotrophic factor: MAFAEQTPLTLHRRDLCSRSIWLARKIRSDLTALMESYVKHQGLNKNINLDSVDGVPVASTDRWSEMTEAERLQENLQAYRTFQGMLTKLLEDQRVHFTPTEGDFHQAIHTLMLQVSAFAYQLEELMVLLEQKIPENEADGMPATVGDGGLFEKKLWGLKVLQELSQWTVRSIHDLRVISSHQMGISALESHYGAKDKQM

How the values were obtained:
[1] = system: neural stem cells in the subventricular zone; assay: Subcutaneous administration, number of neural stem cells in the subventricular zone; format: in vivo
[2] = system: migrating neuronal progenitor cells; assay: Brain anatomical analysis (Cresyl Violet, Doublecortin) in focal ischemic injury (stroke) model; format: in vivo; settings: rats with focal ischemic injury, end of week 6
Source text: The animals for the stroke study received unilateral devascularization of the sensorimotor cortex. Using Isoflurane anesthesia, the skin was incised and retracted and the overlying fascia were removed from the skull. A skull opening was made at the following coordinates, taking care not to damage the dura: AP +4.0 to −2.0; L 1.5 to 4 (the parasagittal ridge; Kolb et al., 1997). The dura was cut and retracted from the skull opening. A cotton swab soaked in sterile saline was gently rubbed across the exposed pia and the vessels were removed. A hole was then drilled in the contralateral hemisphere to provide an opening for the cannulae attached to the osmotic minipump at AP −0.5; L 1.5. An osmotic minipump was placed under the skin between the shoulder blades and a tube connected under the skin to the cannulae, which was attached to the skull with fast-drying cement. Once hemostasis had been achieved the scalp was sutured closed with 5-O sterile suture. The animals were given a single injection of Banamine (an analgesic) and returned to their home cage. Sham animals received only anesthesia, the bone opening, and the skin was incised and sutured. […] The animals then received various test factors, and the effects of these factors on the forelimb inhibition test and brain anatomy were assessed. […]

[3] = Forelimb inhibition test in focal ischemic injury (stroke) model; format: in vivo; settings: rats with focal ischemic injury; first infusion days 1-7, second infusion days 8-14
Source text: Adult male Long-Evans rats (250-350 g) were obtained from Charles River Breeding Farms and were adapted to the colony for two weeks prior to any treatment. A week before surgery the rats were given a baseline testing on the behavioral tests.
The animals for the stroke study received unilateral devascularization of the sensorimotor cortex. Using Isoflurane anesthesia, the skin was incised and retracted and the overlying fascia were removed from the skull. A skull opening was made at the following coordinates, taking care not to damage the dura: AP +4.0 to −2.0; L 1.5 to 4 (the parasagittal ridge; Kolb et al., 1997). The dura was cut and retracted from the skull opening. A cotton swab soaked in sterile saline was gently rubbed across the exposed pia and the vessels were removed. A hole was then drilled in the contralateral hemisphere to provide an opening for the cannulae attached to the osmotic minipump at AP −0.5; L 1.5. […]
Six days later the animals were assessed using the behavioral test. […]
In normal rats, swimming is accomplished by propulsion from the hind limbs. […] Inhibition of the forelimbs was assessed by filming animals while swimming. […]
The animals then received various test factors, and the effects of these factors on the forelimb inhibition test and brain anatomy were assessed. […]

neural stem cells [4] = assay: BrdU labelling of proliferating cells in infused animals; format: in vivo, mice; settings: BrdU also given to the infused animals
neural stem cells [5] = assay: Number of EGF-responsive neural stem cells (primary neurospheres) after infusion into the lateral ventricle; format: in vivo, mice
Source text: Thus, we infused either CNTF or EPO into the lateral ventricles of adult mice for six days, after which we either removed the entire adult ependyma/subependyma to examine the total number of EGF-responsive NSCs or examined the in vivo production of neuronal precursors. […] Therefore, EGF-responsive NSCs turn over continuously in vivo, a sub-population of which spontaneously differentiates into restricted glial precursors, while another sub-population is directed to the neuronal restricted linage by EPO.
The protocols for neural stem cell culture are described in detail in U.S. Pat. No. 5,750,376 or Shingo et al., 2001. Briefly, embryonic neural stem cells were prepared from E14 medial and lateral ganglionic eminences. Adult neural stem cells were prepared from the subventricular zone of adult mice. The tissue was cultured in basal medium containing 20 ng/ml EGF, or other growth factors as indicated in each case, to form neurospheres. The composition of the basal medium is as follows: DMEM/F12 (1:1); glucose (0.6%); glutamine (2 mM); sodium bicarbonate (3 mM); HEPES (5 mM); insulin (25 μg/ml); transferrin (100 μg/ml); progesterone ([…]); putrescine (60 μM); and selenium chloride (30 nM). […]

| Molecule | delivery by subcutaneous administration to modulate the number of neural stem cells in the subventricular zone [1] | doublecortin staining / doublecortin positive cells in the brain [2] | forepaw inhibition / motor function in the forelimb inhibition test [3] | number of BrdU positive cells (neural stem cells [4]) | increase of the number of primary neurospheres that can be obtained from the brain (neural stem cells [5]; infusion into adult mice for six days) | increase in the number of NSCs (neural stem cells [5]; infusion into lateral ventricles of adult mice for six days) |
| --- | --- | --- | --- | --- | --- | --- |
| B1 | effectively delivered | high degree of doublecortin staining | improvement of motor functions; also recorded: acted to correct abnormal positioning of the forelimb during swimming; also recorded: recovery from a representative symptom of stroke; also recorded: improved the motor function |  |  |  |
| B2 |  |  |  | did not increase | about 25% | 20-25% |
